The source of these data is US20230312686A1 (Bristol-Myers Squibb, published 2023).

Where a chain is given by its changes, count along the chain named. Values joined by “and” are separate entries in the source; they are usually repeats but may differ in a detail not shown here. Equal values may be shown once.

Usually Kd stands for the concentration at which binding is half-saturated. What is called koff is the first-order rate constant of dissociation. A word on the kon: it is a measure of how fast the partners come together.

The chains are these.
B1: 6077_F02-FITC (designed binder)
chain: MGVSDVPRDLEVVAATPTSLLISWSDDYHAHRYYRITYGETGGNSPVQEFTVPGEHVTATISGLKPGVDYTITVYAVTYDGEKAATDWSISINYRTPCHHHHHH
modifications: fluorescein-5-maleimide on the C-terminal cysteine
notes: also called FITC-labeled ADX_6077_F02
B2: 6077_F02.dPEG (designed binder)
chain: B1 chain
modifications: dPEG, site and size not stated
notes: The PEGylation is not described; also called PEGylated anti-GPC3 adnectin (dPEG)
B3: 6077_F02-PEG3.4 (designed binder)
chain: B1 chain
modifications: PEG3.4, site not stated
notes: The PEGylation is not described; also called PEGylated anti-GPC3 adnectin (PEG3.4)
B4: ADX_6077_F02 DG→DA mutant, alkylated (designed binder)
chain: GVSDVPRDLEVVAATPTSLLISWSDDYHAHRYYRITYGETGGNSPVQEFTVPGEHVTATISGLKPGVDYTITVYAVTYDAEKAATDWSISINYRTPC
modifications: C-terminal cysteine alkylated
notes: also called P1-055660; PI-055660
B5: ADX_6077_F02 DG→AG mutant, alkylated (designed binder)
chain: B4 chain with D79A, A80G
modifications: C-terminal cysteine alkylated
notes: also called P1-055669
B6: ADX_6077_F02 DG→DS mutant, alkylated (designed binder)
chain: B4 chain with A80S
modifications: C-terminal cysteine alkylated
notes: also called P1-055667
B7: ADX_6077_F02 DG→DL mutant, alkylated (designed binder)
chain: B4 chain with A80L
modifications: C-terminal cysteine alkylated
notes: also called P1-055671
B8: ADX_6077_F02 DG→SG mutant, alkylated (designed binder)
chain: VSDVPRDLEVVAATPTSLLISWSDDYHAHRYYRITYGETGGNSPVQEFTVPGEHVTATISGLKPGVDYTITVYAVTYSGEKAATDWSISINYRTPC
modifications: C-terminal cysteine alkylated
notes: also called P1-055668
B9: ADX_6077_F02 DG→DV mutant, alkylated (designed binder)
chain: B4 chain with A80V
modifications: C-terminal cysteine alkylated
notes: also called P1-055672
B10: ADX_6077_F02 DG→GG mutant, alkylated (designed binder)
chain: B4 chain with D79G, A80G
modifications: C-terminal cysteine alkylated
notes: also called P1-055670
B11: ADX_4578_F03 (designed binder)
chain: MGVSDVPRDLEVVAATPTSLLISWHPPHPNIVSYHIYYGETGGNSPVQEFTVEGSKSTAKISGLKPGVDYTITVYAVAPEIEKYYQIWINYRTEGSGS
B12: ADX_5273_D01 (designed binder)
chain: MGVSDVPRDLEVVAATPTSLLISWEPSYKDDRYYRITYGETGGNSPVQEFTVPSFHQTATISGLKPGVDYTITVYAVTYEPDEYYFYYPISINYRTEIDKPSQ
B13: ADX_5273_C01 (designed binder)
chain: MGVSDVPRDLEVVAATPTSLLISWSDPYEEERYYRITYGETGGNSPVQEFTVPAFHTTATISGLKPGVDYTITVYAVTYKHKYAYYYPPISINYRTEIDKPSQ
B14: ADX_4578_B06 (designed binder)
chain: MGVSDVPRDLEVVAATPTSLLISWFPDRYVYYITYGETGGNSPVQEFTVEGHKQTAYISGLKPGVDYTITVYAIYYYPDDFQGYPQPISINYRTEGSGS
B15: ADX_5274_E01 (designed binder)
chain: MGVSDVPRDLEVVAATPTSLLISWSGDYHPHRYYRITYGETGGNSPVQEFTVPGEHETATISGLKPGVDYTITVYAVTYDGEKADKYPPISINYRTEIDKPSQ
B16: ADX_4578_H08 (designed binder)
chain: MGVSDVPRDLEVVAATPTSLLISWSGYDYGDSYYRITYGETGGNSPVQEFTVPDGSNTATISGLKPGVDYTITVYAVEAYGKGYTRYTPISINYRTEIDKPSQ
B17: ADX_4606_F06 (designed binder)
chain: MGVSDVPRDLEVVAATPTSLLISWNSGHSGQYYRITYGETGGNSPVQEFTVPRYGYTATISGLKPGVDYTITVYAVAHSEASAPISINYRTEIDKPSQ

T1 sequence (Q8CFZ4 25-557 limits assumed, form in doubt): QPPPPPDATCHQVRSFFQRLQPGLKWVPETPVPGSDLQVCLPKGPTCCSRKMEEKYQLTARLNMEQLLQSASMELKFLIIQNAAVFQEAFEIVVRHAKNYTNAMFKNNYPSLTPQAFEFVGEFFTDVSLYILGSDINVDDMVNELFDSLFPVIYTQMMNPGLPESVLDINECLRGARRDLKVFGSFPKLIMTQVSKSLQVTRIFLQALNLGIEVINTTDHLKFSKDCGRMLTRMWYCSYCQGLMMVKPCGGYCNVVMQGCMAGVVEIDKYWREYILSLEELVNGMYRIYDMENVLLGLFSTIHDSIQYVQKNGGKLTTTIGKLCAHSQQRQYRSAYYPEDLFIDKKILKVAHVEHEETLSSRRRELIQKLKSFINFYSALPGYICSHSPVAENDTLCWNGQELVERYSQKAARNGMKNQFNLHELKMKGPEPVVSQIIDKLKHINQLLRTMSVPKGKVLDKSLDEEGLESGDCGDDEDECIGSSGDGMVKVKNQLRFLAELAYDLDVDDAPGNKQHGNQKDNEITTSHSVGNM
T3 sequence (P51654 25-554 limits assumed): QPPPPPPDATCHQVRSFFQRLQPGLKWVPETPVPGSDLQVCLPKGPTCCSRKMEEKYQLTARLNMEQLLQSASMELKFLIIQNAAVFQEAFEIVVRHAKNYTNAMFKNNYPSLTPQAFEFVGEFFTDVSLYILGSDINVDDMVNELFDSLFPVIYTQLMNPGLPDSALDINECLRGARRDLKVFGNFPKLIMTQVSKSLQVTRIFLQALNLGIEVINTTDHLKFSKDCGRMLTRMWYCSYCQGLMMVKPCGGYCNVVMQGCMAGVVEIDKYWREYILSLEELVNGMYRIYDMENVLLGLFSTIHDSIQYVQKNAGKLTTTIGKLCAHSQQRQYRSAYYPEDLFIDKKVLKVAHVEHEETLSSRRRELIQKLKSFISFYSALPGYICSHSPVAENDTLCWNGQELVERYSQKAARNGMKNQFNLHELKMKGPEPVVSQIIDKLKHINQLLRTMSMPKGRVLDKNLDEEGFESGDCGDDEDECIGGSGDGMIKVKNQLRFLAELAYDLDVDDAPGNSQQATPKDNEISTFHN

The first assay concerns the target T1, Recombinant murine glypican-3 (aa 25-557), R&D Systems (murine, UniProt Q8CFZ4 25-557).
T1 construct: also called muGPC3; Mu GPC3-His
Kind of assay: SPR, as in the previous Examples. Here is the method: (§1) For off-rate measurements, single 200 nM adnectin/AdxDC concentrations were injected using identical conditions. One 30s injection of 10 mM glycine pH 1.7 was used to remove bound adnectin and regenerate the GPC3 surfaces between assay cycles.
(§2) Rate constants kₐ (kₒₙ) and kd (koff) were derived from reference-subtracted sensorgrams fit to a 1:1 binding model in Biacore T100 Evaluation Software v2.0.4 (GE Healthcare). The affinity constant, KD was calculated from the ratio of rate constants kd/kₐ.
(§3) FITC Labeling: ADX_6077_F02 and non-binding control Adnectin were reduced with DTT or TCEP followed by G25 gel filtration chromatography or dialysis. Excess Fluorescein-5-maleimide reagent (Thermo Scientific) was then added and the mixture incubated at room temperature for approximately 2 hours followed by G25 gel filtration chromatography or extensive dialysis (3-4 buffer changes). The resulting degree of labeling was measured by absorbance following the manufacturer's instructions and/or by mass spectrometry. The binding affinities of FITC-labeled and PEGylated […] for human and murine GPC3 was evaluated as described in the previous Examples, and the results are summarized in Table 13.
For B1, the Kd came to 3.97 nM, the koff was 0.000446 s⁻¹ and the kon was found to be 112000 M⁻¹ s⁻¹.
In the case of B2, the Kd was 5.43 nM and 5.26 nM; the koff was 0.000559 s⁻¹ and 0.000557 s⁻¹; the kon was 103000 M⁻¹ s⁻¹ and 106000 M⁻¹ s⁻¹.
With B3, the Kd was found to be 5.12 nM, the koff is 0.000523 s⁻¹ and the kon was 102000 M⁻¹ s⁻¹.

The next assay deals with T2, Recombinant human glypican-3 (aa 1-559), His-tagged, R&D Systems (human, UniProt P51654 25-559).
T2 construct: also called huGPC3; Hu GPC3-His
T2 sequence (P51654 other isoform, or with tags, fused parts or gaps): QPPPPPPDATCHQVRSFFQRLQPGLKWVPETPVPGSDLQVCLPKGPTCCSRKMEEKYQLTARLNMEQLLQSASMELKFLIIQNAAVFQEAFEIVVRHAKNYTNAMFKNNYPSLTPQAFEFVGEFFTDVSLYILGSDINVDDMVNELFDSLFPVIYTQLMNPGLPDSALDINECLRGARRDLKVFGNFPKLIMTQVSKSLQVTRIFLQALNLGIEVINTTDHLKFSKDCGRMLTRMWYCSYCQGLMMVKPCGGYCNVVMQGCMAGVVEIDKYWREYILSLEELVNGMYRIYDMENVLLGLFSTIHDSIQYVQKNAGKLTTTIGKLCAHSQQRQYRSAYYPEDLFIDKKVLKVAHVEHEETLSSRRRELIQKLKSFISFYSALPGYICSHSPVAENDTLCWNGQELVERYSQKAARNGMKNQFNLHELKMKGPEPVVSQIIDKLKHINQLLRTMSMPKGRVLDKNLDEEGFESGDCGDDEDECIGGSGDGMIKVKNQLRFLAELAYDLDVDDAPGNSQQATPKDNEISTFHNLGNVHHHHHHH
Put plainly: SPR, as in the previous Examples. Here is the method: as §1, §2, §3
In general terms: Surface plasmon resonance follows binding to a sensor surface in real time, without labels.
On to B1, for which the Kd was found to be 6.11 nM, the koff came out at 0.000498 s⁻¹ and the kon was 81500 M⁻¹ s⁻¹.
Turning to B2, the Kd was 8.19 nM and 8.1 nM; the koff is 0.000602 s⁻¹ and 0.000607 s⁻¹; the kon is 73500 M⁻¹ s⁻¹ and 75000 M⁻¹ s⁻¹.
In the case of B3, the Kd worked out at 8.14 nM, the koff was determined as 0.000584 s⁻¹ and the kon stood at 71800 M⁻¹ s⁻¹.

The next assay concerns the target T3, Human glypican-3 on cells (Huh7, Hep3B, H446, Hep3B xenograft tissue) (human, UniProt P51654 25-554).
T3 construct: Endogenous GPC3 of human tumour cell lines; also called huGPC3 on cells; GPC3 receptor
Kind of assay: flow cytometry on Huh7 cells. Here is the method: The binding of DG variants to huGPC3 in DG GPC3 AdxDCs mutants were evaluated by flow cytometry for binding to Huh7 carcinoma cells grown in DMEM media with 10% FBS. Cells were harvested using Versene, an EDTA cell dissociation solution from Lonza, Cat. #17-711E. Tumor cells (1E5 cells/reaction) were suspended in FACS buffer (PBS, 1% BSA, 0.05% Na Azide) and mixed with a serial dilution of AdxDC for one hour on ice. Cells were washed three times with FACS buffer, and bound AdxDC was detected with an in house anti-scaffold monoclonal Ab and PE-conjugated Antibody from (RnD Systems), cat #NL007, and read on a flow cytometer.
On to B4, for which the “huGPC3 on cells EC50 (mutant/parent)” value came out at 1.3 fold.
For the molecule B5, the “huGPC3 on cells EC50 (mutant/parent)” value came to 1.1 fold.
For B6, the “huGPC3 on cells EC50 (mutant/parent)” value turned out to be 1.4 fold.
B7: the “huGPC3 on cells EC50 (mutant/parent)” value was determined as 1.7 fold.
On the same count and under the same terms, then B8, with 1.1 fold.

The target in the next assay is T1, Recombinant murine glypican-3 (aa …). Kind of assay: SPR 1-point off-rate, alkylated mutant vs parent.
As to B4, the “muGPC3 koff (mut/par)” value is 3.7 fold.
For the molecule B5, the “muGPC3 koff (mut/par)” value was 5.5 fold.
Take B9: the “muGPC3 koff (mut/par)” value came to 7 fold.
For the molecule B10, the “muGPC3 koff (mut/par)” value amounted to 12 fold.
The same measure, in the same setting: under B6 stands 3.3 fold; under B7, 3.1 fold; under B8, 4.8 fold.

The next assay addresses T2, Recombinant human glypican-3 (aa …). Kind of assay: SPR 1-point off-rate, alkylated mutant vs parent.
For the molecule B4, the “huGPC3 koff (mut/par)” value was determined as 3.9 fold.
Turning to B5, the “huGPC3 koff (mut/par)” value was 5.9 fold.
In the case of B9, the “huGPC3 koff (mut/par)” value worked out at 7.9 fold.
On to B10, for which the “huGPC3 koff (mut/par)” value was 14 fold.
The same measure, in the same setting: under B6 stands 3.5 fold.
As to B7, the “huGPC3 koff (mut/par)” value was 3.6 fold.
Turning to B8, the “huGPC3 koff (mut/par)” value was 5.2 fold.

The target in another assay is T4, Human glypican-3, recombinant, construct not stated (human, UniProt P51654 25-559, limits assumed, biotin in the positional scanning (site not stated)).
T4 construct: also called recombinant GPC3; human GPC3
T4 sequence (P51654 25-559 limits assumed): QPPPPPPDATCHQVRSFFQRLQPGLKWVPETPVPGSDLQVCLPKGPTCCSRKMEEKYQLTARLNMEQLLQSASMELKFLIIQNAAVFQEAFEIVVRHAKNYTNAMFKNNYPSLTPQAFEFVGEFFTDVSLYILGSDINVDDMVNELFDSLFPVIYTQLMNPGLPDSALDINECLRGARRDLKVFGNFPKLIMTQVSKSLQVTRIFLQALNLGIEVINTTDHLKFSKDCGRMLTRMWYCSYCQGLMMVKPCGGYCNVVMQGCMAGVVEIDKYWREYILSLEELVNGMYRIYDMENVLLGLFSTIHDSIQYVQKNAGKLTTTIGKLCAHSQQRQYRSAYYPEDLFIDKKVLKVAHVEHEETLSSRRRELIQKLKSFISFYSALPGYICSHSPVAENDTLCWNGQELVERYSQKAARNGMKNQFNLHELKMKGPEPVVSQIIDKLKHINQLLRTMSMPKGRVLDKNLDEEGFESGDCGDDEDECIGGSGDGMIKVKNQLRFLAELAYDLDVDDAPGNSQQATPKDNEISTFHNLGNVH
Put plainly: ELISA, recombinant GPC3. (In general: In an ELISA, binding on a coated surface is turned into a signal by an enzyme label.)
For the molecule B11, the “ELISA OD” value stood at 0.6 OD.
Same read-out and setting: under B12 stands 2.1 OD; under B13, 1.35 OD.
For the molecule B14, the “ELISA OD” value came to 0.17 OD.
With B15, the “ELISA OD” value stood at 2.37 OD.
With B16, the “ELISA OD” value worked out at 1.02 OD.
Take B17: the “ELISA OD” value was 1.73 OD.

For another assay, the target named is T1, Recombinant murine glypican-3 (aa …). Kind of assay: SPR, Biacore T100, GPC3-His immobilised, 1:1 fit. Here is the method:
(§4) The binding affinities of the alkylated GPC3 DG mutant adnectins for human and murine GPC3 were further evaluated by Biacore T100 using HBS-P+ running buffer with direct immobilization of human and mouse GPC3 proteins [Hu (Fc 2,3) and Mu (Fc 4) GPC3-His (R&D Systems)] with a 200-1.56 nM series injected for 180s association, 600s dissociation.
B4: the “Fold affinity (KD) difference vs alkylated parent” value (“Fold affinity (KD) difference” below) amounted to 4.3 fold, the Kd is 16 nM, the koff stood at 0.0017 s⁻¹ and the kon was 100000 M⁻¹ s⁻¹.
Regarding B5, the “Fold affinity (KD) difference” value stood at 4 fold, the equilibrium dissociation constant (Kd) turned out to be 15 nM, the koff came out at 0.0021 s⁻¹ and the kon stood at 140000 M⁻¹ s⁻¹.
As to B9, the “Fold affinity (KD) difference” value stood at 7.8 fold, the Kd is 30 nM, the koff is 0.0025 s⁻¹ and the kon was found to be 85000 M⁻¹ s⁻¹.
Turning to B6, the “Fold affinity (KD) difference” value was determined as 3.9 fold, the Kd amounted to 15 nM, the off-rate constant (koff) came out at 0.0015 s⁻¹ and the kon came out at 100000 M⁻¹ s⁻¹.
For B7, the “Fold affinity (KD) difference” value turned out to be 3.8 fold, the Kd was 15 nM, the koff was 0.0015 s⁻¹ and the kon came out at 100000 M⁻¹ s⁻¹.
As to B8, the “Fold affinity (KD) difference” value came to 4.1 fold, the Kd was determined as 16 nM, the koff amounted to 0.002 s⁻¹ and the kon came out at 130000 M⁻¹ s⁻¹.

The target in the next assay is T2, Recombinant human glypican-3 (aa …). Put plainly: SPR, Biacore T100, GPC3-His immobilised, 1:1 fit. Here is the method:
as §4
Regarding B4, the “Fold affinity (KD) difference” value worked out at 4.5 fold, the Kd worked out at 25.4 nM, the koff was determined as 0.00183 s⁻¹ and the kon worked out at 72200 M⁻¹ s⁻¹.
With B5, the “Fold affinity (KD) difference” value was 4.2 fold, the Kd turned out to be 23.7 nM, the koff came to 0.00243 s⁻¹ and the kon worked out at 103000 M⁻¹ s⁻¹.
As to B9, the “Fold affinity (KD) difference” value came out at 7.8 fold, the Kd amounted to 43.5 nM, the koff turned out to be 0.00309 s⁻¹ and the kon came out at 71000 M⁻¹ s⁻¹.
As to B6, the “Fold affinity (KD) difference” value was found to be 4.2 fold, the Kd was 23.3 nM, the koff amounted to 0.00166 s⁻¹ and the kon was 71600 M⁻¹ s⁻¹.
B7: the “Fold affinity (KD) difference” value stood at 3.9 fold, the Kd came to 21.9 nM, the koff is 0.00159 s⁻¹ and the kon is 72600 M⁻¹ s⁻¹.
Consider B8, for which the “Fold affinity (KD) difference” value was 4.2 fold, the Kd worked out at 23.5 nM, the koff was determined as 0.00221 s⁻¹ and the kon was 94000 M⁻¹ s⁻¹.
